Results as given in patent publication US20190270815A1 (WUXI BIOLOGICS IRELAND, published 2019).

How the values were obtained:
Assay in all cases: ELISA, antibody coated, His-tagged PD-1 mutant supernatant; fold change vs silent alanine substitutions
[1] = biological target: T1, hPD-1 ECD-His point mutant A 113 (to glycine) (human, UniProt Q15116 25-170)
T1 construct: extracellular domain
Description: (§1) After interacting with the supernatant that contains quantified PD-1 mutant, HRP conjugated anti-His antibody (Rockland, Cat#200-303-382) was added as detection antibody. Absorbance was normalized according to the average of control mutants. After setting an additional cutoff to t4he binding fold change (<0.55), the final determined epitope residues were identified.

[2] = biological target: T2, hPD-1 ECD-His point mutant A 50 (to glycine) (human, UniProt Q15116 25-170)
T2 construct: extracellular domain
T2 sequence (Q15116 other isoform, or with tags, fused parts or gaps mutant): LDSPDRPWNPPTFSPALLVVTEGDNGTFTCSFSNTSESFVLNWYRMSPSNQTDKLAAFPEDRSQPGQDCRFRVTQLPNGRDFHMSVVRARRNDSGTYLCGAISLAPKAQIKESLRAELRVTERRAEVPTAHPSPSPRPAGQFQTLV
Description: as §1

[3] = biological target: T3, hPD-1 ECD-His point mutant D 117 (to alanine) (human, UniProt Q15116 25-170)
T3 construct: extracellular domain
T3 sequence (Q15116 other isoform, or with tags, fused parts or gaps mutant): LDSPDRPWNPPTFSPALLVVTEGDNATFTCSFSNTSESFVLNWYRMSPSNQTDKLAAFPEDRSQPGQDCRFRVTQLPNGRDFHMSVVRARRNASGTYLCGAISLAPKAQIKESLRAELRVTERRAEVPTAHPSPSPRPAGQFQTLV
Description: as §1

[4] = biological target: T4, hPD-1 ECD-His point mutant R 94 (to alanine) (human, UniProt Q15116 25-170)
T4 construct: extracellular domain
T4 sequence (Q15116 other isoform, or with tags, fused parts or gaps mutant): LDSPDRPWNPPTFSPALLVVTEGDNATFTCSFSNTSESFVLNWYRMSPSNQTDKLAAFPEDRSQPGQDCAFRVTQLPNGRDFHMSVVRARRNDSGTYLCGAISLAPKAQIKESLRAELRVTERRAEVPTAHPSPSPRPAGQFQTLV
Description: as §1

[5] = biological target: T5, hPD-1 ECD-His point mutant W 67 (to alanine) (human, UniProt Q15116 25-170)
T5 construct: extracellular domain
T5 sequence (Q15116 other isoform, or with tags, fused parts or gaps mutant): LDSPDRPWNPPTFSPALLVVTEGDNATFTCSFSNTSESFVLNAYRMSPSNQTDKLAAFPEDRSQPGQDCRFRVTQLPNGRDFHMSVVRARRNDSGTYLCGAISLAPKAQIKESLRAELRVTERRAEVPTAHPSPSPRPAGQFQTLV
Description: as §1

[6] = biological target: T6, hPD-1 ECD-His point mutant F 52 (to alanine) (human, UniProt Q15116 25-170)
T6 construct: extracellular domain
T6 sequence (Q15116 other isoform, or with tags, fused parts or gaps mutant): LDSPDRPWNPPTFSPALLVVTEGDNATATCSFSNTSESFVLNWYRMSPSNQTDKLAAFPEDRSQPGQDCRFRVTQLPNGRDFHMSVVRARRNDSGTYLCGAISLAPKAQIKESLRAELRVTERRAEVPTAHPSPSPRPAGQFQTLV
Description: as §1

[7] = biological target: T7, hPD-1 ECD-His point mutant P 83 (to alanine) (human, UniProt Q15116 25-170)
T7 construct: extracellular domain
T7 sequence (Q15116 other isoform, or with tags, fused parts or gaps mutant): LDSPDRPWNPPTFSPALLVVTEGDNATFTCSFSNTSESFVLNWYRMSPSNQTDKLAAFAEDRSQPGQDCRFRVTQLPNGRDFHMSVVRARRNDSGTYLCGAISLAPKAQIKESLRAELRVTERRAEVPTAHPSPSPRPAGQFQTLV
Description: as §1

[8] = biological target: T8, hPD-1 ECD-His point mutant F 82 (to alanine) (human, UniProt Q15116 25-170)
T8 construct: extracellular domain
T8 sequence (Q15116 other isoform, or with tags, fused parts or gaps mutant): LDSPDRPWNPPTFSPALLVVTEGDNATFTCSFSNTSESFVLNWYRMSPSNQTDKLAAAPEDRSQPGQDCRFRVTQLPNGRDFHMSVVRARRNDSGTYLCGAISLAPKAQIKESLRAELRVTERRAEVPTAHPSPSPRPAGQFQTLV
Description: as §1

[9] = biological target: T9, hPD-1 ECD-His point mutant C 123 (to alanine) (human, UniProt Q15116 25-170)
T9 construct: extracellular domain
T9 sequence (Q15116 other isoform, or with tags, fused parts or gaps mutant): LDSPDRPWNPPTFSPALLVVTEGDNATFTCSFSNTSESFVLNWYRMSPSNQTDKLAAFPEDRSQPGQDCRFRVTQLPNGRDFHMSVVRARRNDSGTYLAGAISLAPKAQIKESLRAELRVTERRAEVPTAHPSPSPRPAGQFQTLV
Description: as §1

[10] = biological target: T10, hPD-1 ECD-His point mutant I 134 (to alanine) (human, UniProt Q15116 25-170)
T10 construct: extracellular domain
T10 sequence (Q15116 other isoform, or with tags, fused parts or gaps mutant): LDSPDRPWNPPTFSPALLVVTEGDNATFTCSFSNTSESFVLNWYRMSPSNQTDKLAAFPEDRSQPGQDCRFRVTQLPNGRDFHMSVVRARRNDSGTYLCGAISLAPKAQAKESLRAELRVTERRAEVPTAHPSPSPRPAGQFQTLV
Description: as §1

[11] = biological target: T11, hPD-1 ECD-His point mutant G 47 (to alanine) (human, UniProt Q15116 25-170)
T11 construct: extracellular domain
T11 sequence (Q15116 other isoform, or with tags, fused parts or gaps mutant): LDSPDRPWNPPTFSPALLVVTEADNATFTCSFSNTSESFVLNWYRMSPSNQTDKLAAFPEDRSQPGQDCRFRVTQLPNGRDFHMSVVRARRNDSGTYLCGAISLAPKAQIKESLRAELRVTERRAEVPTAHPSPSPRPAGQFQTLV
Description: as §1

[12] = biological target: T12, hPD-1 ECD-His point mutant A 132 (to glycine) (human, UniProt Q15116 25-170)
T12 construct: extracellular domain
T12 sequence (Q15116 other isoform, or with tags, fused parts or gaps mutant): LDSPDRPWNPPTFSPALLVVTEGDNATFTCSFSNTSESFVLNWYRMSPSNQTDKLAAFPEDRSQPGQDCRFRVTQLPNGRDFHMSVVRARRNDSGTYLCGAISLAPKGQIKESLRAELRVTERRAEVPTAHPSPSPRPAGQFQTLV
Description: as §1

[13] = biological target: T13, hPD-1 ECD-His point mutant P 130 (to alanine) (human, UniProt Q15116 25-170)
T13 construct: extracellular domain
T13 sequence (Q15116 other isoform, or with tags, fused parts or gaps mutant): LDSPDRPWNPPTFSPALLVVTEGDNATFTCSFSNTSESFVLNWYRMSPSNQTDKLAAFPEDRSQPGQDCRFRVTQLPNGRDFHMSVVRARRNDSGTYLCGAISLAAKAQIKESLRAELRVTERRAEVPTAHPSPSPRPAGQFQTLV
Description: as §1

[14] = biological target: T14, hPD-1 ECD-His point mutant F 106 (to alanine) (human, UniProt Q15116 25-170)
T14 construct: extracellular domain
T14 sequence (Q15116 other isoform, or with tags, fused parts or gaps mutant): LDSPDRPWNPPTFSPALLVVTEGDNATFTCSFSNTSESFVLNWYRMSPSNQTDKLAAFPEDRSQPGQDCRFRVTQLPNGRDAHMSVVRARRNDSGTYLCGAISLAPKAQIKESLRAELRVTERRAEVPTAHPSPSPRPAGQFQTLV
Description: as §1

T1 sequence (Q15116 other isoform, or with tags, fused parts or gaps mutant): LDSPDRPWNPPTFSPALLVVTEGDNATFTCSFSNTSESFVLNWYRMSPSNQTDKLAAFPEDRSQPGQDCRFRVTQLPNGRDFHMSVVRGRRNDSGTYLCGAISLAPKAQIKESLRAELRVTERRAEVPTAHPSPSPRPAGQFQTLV

- fold change [1]: 0.73
- fold change [2]: 0.73
- fold change [3]: 0.73
- fold change [4]: 0.7
- fold change [5]: 0.76
- fold change [6]: 0.59
- fold change [7]: 0.3
- fold change [8]: 0.65
- fold change [9]: 0.46
- fold change [10]: 0.69
- fold change [11]: 0.77
- fold change [12]: 0.53
- fold change [13]: 0.41
- fold change [14]: 0.41
B1: 1.103.11 hAb (antibody, V domains shown)
VH: QLQLQESGPGLVKPSETLTLTCTVSADSISSTTYYWVWIRQPPGKGLEWIGSISYSGSTYYNPSLKSRVTVSVDTSKNQFSLKLNSVAATDTALYYCARHLGYNGRYLPFDYWGQGTLVTVSS
VL: QSALTQPASVSGSPGQSITISCTGTSSDVGFYNYVSWYQQHPGKAPELMIYDVSNRPSGVSDRFSGSKSGNTASLTISGLQAEDEADYYCSSYTNISTWVFGGGTKLTVL
notes: fully human monoclonal antibody with a human constant region of IgG4 isotype
